Data reported in US20190224333A1 (published 2019).

Biological target: T1, fibrin (human, UniProt P02671 36-629; P02675 45-491; P02679 27-437, limits assumed)
T1 construct: Thin polymerised fibrin layer made by layer-by-layer deposition of fibrinogen-thrombin-fibrinogen on ELISA plates, SPR chips and interferometry sensors; Human is stated for the purified fibrinogen used in biopanning; also called fibrin layer; fibrin clot
T1 sequence (looked up) 1: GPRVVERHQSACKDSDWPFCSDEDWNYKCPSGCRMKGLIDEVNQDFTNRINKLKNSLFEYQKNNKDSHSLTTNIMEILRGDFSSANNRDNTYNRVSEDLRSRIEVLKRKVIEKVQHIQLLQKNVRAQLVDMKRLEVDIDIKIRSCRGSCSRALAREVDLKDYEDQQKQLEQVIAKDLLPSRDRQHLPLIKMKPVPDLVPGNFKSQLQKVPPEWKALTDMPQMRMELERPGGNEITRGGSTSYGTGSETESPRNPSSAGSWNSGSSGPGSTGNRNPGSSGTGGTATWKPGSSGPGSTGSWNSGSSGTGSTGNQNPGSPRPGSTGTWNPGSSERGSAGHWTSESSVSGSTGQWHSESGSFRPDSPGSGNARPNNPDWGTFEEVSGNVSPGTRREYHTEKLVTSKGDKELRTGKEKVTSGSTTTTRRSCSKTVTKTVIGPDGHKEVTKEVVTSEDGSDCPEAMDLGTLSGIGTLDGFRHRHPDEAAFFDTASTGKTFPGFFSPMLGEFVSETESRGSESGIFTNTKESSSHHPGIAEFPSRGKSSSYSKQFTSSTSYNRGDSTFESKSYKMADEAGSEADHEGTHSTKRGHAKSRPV
T1 sequence (looked up) 2: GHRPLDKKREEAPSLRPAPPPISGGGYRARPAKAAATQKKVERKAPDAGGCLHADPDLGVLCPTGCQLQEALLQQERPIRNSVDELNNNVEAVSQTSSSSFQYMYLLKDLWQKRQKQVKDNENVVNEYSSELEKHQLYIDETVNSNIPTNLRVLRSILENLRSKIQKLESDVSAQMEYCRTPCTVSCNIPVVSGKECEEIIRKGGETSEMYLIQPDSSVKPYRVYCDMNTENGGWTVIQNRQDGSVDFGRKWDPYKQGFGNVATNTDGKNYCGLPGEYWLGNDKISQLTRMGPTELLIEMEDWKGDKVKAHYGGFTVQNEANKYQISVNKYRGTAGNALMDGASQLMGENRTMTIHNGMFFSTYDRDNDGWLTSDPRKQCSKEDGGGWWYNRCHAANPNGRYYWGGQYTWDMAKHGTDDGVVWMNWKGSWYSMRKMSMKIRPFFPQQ
T1 sequence (looked up) 3: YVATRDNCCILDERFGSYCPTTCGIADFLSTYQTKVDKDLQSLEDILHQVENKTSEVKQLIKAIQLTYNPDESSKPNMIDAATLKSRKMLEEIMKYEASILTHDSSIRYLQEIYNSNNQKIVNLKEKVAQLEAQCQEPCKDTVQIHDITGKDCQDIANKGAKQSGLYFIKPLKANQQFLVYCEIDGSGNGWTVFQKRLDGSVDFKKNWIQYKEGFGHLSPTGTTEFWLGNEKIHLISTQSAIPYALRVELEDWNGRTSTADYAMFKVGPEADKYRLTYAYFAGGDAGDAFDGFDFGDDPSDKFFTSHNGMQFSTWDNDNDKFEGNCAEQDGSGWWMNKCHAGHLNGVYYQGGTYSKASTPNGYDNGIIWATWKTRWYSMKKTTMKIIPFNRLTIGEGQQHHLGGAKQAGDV
Assay: SPR, sdFv flowed over immobilised fibrin layer, 1:1 Langmuir fit
Method: Based on previous SPR protocols developed in the lab⁴, a thin fibrin layer was immobilized on the surface of a gold SPR chip via layer-by-layer deposition of fibrinogen-thrombin-fibrinogen³. SdFvs were flowed across the fibrin surface and the binding interactions were evaluated and recorded. Additionally, antibody fragment binding interactions with a surface of immobilized fibrinogen was used to investigate the specificity to fibrin. All SPR data was examined and analyzed with Scrubber 2 and Clamp XP (Center for Biomolecular Interactions Analysis, University of Utah). Data simulation curves were generated based on a Langmuir 1:1 binding model assuming only a single ligand-analyte interaction.
The four most promising clones, based on their selectivity for fibrin over fibrinogen (clones A2, A6, B3 and H6) and a random clone (S11) were then evaluated through SPR analysis (FIGS. 2B-2K). […] Clones H6 and S11 (negative control) were subsequently utilized for creation of PLPs. Interferometry analysis verified that sdFv-microgels maintained their fibrin-binding capabilities (FIG. 3).

B1: H6 (VHH)
VHH: QVQLLESGGGLVQPGGSLRLSCAASGDRFTHNDMGWVRQAPGKGLEWVSTIPTTDGSTYYADSVKGRFTISRDNSKSTLYLQMNSLRAEDTAVYYCATGYMWKAPAYVKYWGQGTLVTVSS
notes: Human-derived single domain variable fragment (sdFv, VH only) from a phagemid library; Made as soluble sdFv in E. coli HB2151 and purified on protein A; also called clone H6; fibrin-specific sdFv
Kd: 199 nM
